Test results reported in US10808024B2, “Antibodies against immunocomplexes comprising cyanobacterial cyclic peptide hepatotoxins” (priority 2015, dated 2020).

B1: SA51F6: group-specific anti-immunocomplex antibody (antibody, V domains shown)
VH: EVQLLESGGGLVQPGGSLRLSCAASGFTFSDYWMHWVRQAPGKGLEWVSEIWYSSGYTNYADSVKGRFTISRDNSKNTLYLQMNSLRAEDTAVYYCARDAFPWDVFDYWGQGTLVTVSS
VL: EIVLTQSPGTLSLSPGERATLSCRASQSVSSSYLAWYQQKPGQAPRLLIYGASSRATGVPDRFSGSGSGTDFTLTISRLEPEDFAVYYCQQSSSTPWTFGQGTKVEIKRT
modifications: Clone SA51F6; DOMAIN (31)..(35) CDR1; DOMAIN (50)..(66) CDR2; DOMAIN (99)..(108) CDR3; DOMAIN (24)..(35) CDR1; DOMAIN (51)..(57) CDR2; DOMAIN (90)..(98) CDR3
B2: SA56D5: subgroup specific anti-IC antibody with MC-LR preferring specificity (antibody, V domains shown)
VH: EVQLLESGGGLVQPGGSLRLSCAASGFTFSDYYMHWVRQAPGKGLEWVSYIDGNGGYTDYADSVKGRFTISRDNSKNTLYLQMNSLRAEDTAVYYCARYWFDSSYKHRYFDYWGQGTLVTVSS
VL: EIVLTQSPGTLSLSPGERATLSCRASQSVSSSNLAWYQQKPGQAPRLLIYGASSRATGVPDRFSGSGSGTDFTLTISRLEPEDFAVYYCQQSSSYPWTFGQGTKVEIKRT
modifications: Clone SA56D5; DOMAIN (31)..(35) CDR1; DOMAIN (50)..(66) CDR2; DOMAIN (99)..(112) CDR3; DOMAIN (24)..(35) CDR1; DOMAIN (51)..(57) CDR2; DOMAIN (90)..(98) CDR3
B3: SA60A1: subgroup specific anti-IC antibody with MC-LR preferring specificity (antibody, V domains shown)
VH: EVQLLESGGGLVQPGGSLRLSCAASGFTFSPYYMHWVRQAPGKGLEWVSYITPYDGYTDYADSVKGRFTISRDNSKNTLYLQMNSLRAEDTAVYYCARYSYVGSVRTRVFDYWGQGTLVTVSS
VL: EIVLTQSPGTLSLSPGERATLSCRASQSVSSSNLAWYQQKPGQAPRLLIYGASSRATGVPDRFSGSGSGTDFTLTISRLEPEDFAVYYCQQSYSYPWTFGQGTKVEIKRT
modifications: Clone SA60A1; DOMAIN (31)..(35) CDR1; DOMAIN (50)..(66) CDR2; DOMAIN (99)..(112) CDR3; DOMAIN (24)..(35) CDR1; DOMAIN (51)..(57) CDR2; DOMAIN (90)..(98) CDR3
B4: SA57A3: subgroup specific anti-IC antibody with MC-LR preferring specificity (antibody, V domains shown)
VH: EVQLLESGGGLVQPGGSLRLSCAASGFTFSDYYMHWVRQAPGKGLEWVSYINTYDGNTDYADSVKGRFTISRDNSKNTLYLQMNSLRAEDTAVYYCARYYNPYTRRRVFDYWGQGTLVTVSS
VL: EIVLTQSPGTLSLSPGERATLSCRASQSVSSSNLAWYQQKPGQAPRLLIYGASSRATGVPDRFSGSGSGTDFTLTISRLEPEDFAVYYCQQSSSYPWTFGQGTKVEIKRT
modifications: Clone SA57A3; DOMAIN (31)..(35) CDR1; DOMAIN (50)..(66) CDR2; DOMAIN (99)..(111) CDR3; DOMAIN (24)..(35) CDR1; DOMAIN (51)..(57) CDR2; DOMAIN (90)..(98) CDR3

System: immunocomplexes of CCPH variants and anti-Adda mAb
Experiment: Screening and cross-reactivity studies of anti-IC scFv-AP binders, specificity class
Format: binding

Molecule	Specificity of anti-IC antibody (CCPH immunocomplexes recognized)
B1	group-specific
B2	MC-LR preferring specificity
B3	MC-LR preferring specificity
B4	MC-LR preferring specificity
